Numbering of substitutions follows the chain as printed.
B1: SEQ ID NO:43 (ssRNA)
RNA: GGGAGAGGAGAAGAGGAGUGCACAGGGGUUGGUGUCGGGUGCACAGUAUAAG
modifications: 2'-F pyrimidines
B2: SEQ ID NO:31 (ssRNA)
RNA: GGGAGAGGAGAAGAGGAAGUGUGCACAGGGGUUGGUGUCGGGUGCAUACAGUAUAAGAUAGAGGACA
modifications: 2'-F pyrimidines
B3: SEQ ID NO:41 (ssRNA)
RNA: GGGAAGGAGAAGAGGAAGUGCACAGGGGUUGGUGUCGGGUGCACAGUAUAAG
modifications: 2'-F pyrimidines
B4: SEQ ID NO:42 (ssRNA)
RNA: B1 RNA with A12G, G13A, A14G, G16A
modifications: 2'-F pyrimidines
B5: SEQ ID NO:36 (ssRNA)
RNA: GGGAGAGGAGAAGAGGAAGUGCACAGGGGUUGGUGUCGGGUGCACAGUAUAAG
modifications: 2'-F pyrimidines
B6: SEQ ID NO:36-1 (ssRNA)
RNA: B5 RNA
modifications: 2'-F pyrimidines; 2'-OMe on all of 5' single strand (nt 1-18)
B7: SEQ ID NO:32 (ssRNA)
RNA: GGGAGAGGAGAAGAGGAAGUGUGCACAGGGGUUGGUGUCGGGUGCAUACAGUAUAAG
modifications: 2'-F pyrimidines
B8: SEQ ID NO:35 (ssRNA)
RNA: GGGAGAGGAGAAGAGGAAGUGUGCACAGGGGUUGGUGUCGGGUGCAUACAG
modifications: 2'-F pyrimidines
B9: SEQ ID NO:30 (ssRNA)
RNA: GGAGAAGAGGAAGUGUGCACAGGGGUUGGUGUCGGGUGCAUACAGUAUAAGAUAGAGGACAGGAAUGAGGA
modifications: 2'-F pyrimidines
B10: SEQ ID NO:33 (ssRNA)
RNA: GGAGAAGAGGAAGUGUGCACAGGGGUUGGUGUCGGGUGCAUACAGUAUAAGAUAGAGGACA
modifications: 2'-F pyrimidines
B11: SEQ ID NO:61-3 (ssRNA)
RNA: GGGAAGGAGGAAGUGCACAGGGGUUGGUGUCGGGUGCAC
modifications: g(F)g(F)g(F)a(M)a(M)g(F)g(F)a(M)g(F)g(F)a(M)a(M)g(M)u(F)g(M)c(F)a(M)c(F)a(M)g(F)g(M)g(M)g(M)u(F)u(F)g(M)g(M)u(F)g(M)u(F)c(F)g(F)g(F)g(M)u(F)g(M)c(F)a(M)c(F); M 2'-OMe, F 2'-F
B12: SEQ ID NO:61-4 (ssRNA)
RNA: B11 RNA
modifications: ggga(M)a(M)gga(M)gga(M)a(M)g(M)u(F)g(M)c(F)a(M)c(F)aggg(M)g(M)u(F)u(F)g(M)g(M)u(F)g(M)u(F)c(F)gggu(F)g(M)c(F)a(M)c(F); M 2'-OMe, F 2'-F
B13: SEQ ID NO:45-1 (ssRNA)
RNA: GGGAGAGGAGAAGAGGAAGUGCACAGGGGUUGGUGUCGGGUGCAC
modifications: 5' PEG2000-C12; 3' idT; 2'-F pyrimidines; 2'-OMe all A in 5' single-stranded part
B14: SEQ ID NO:45-2 (ssRNA)
RNA: B13 RNA
modifications: 2'-F pyrimidines; 2'-OMe all A in 5' single-stranded part and G in loop: agggg(M)u(F)u(F)g(M)g(M)u(F)g(M)u(F)c(F)
B15: SEQ ID NO:20-3 (ssRNA)
RNA: GGGAGAGGAACGACGAGGAGUAGCCGGAAAGAAGGCGGCGUC
modifications: 2'-F pyrimidines; 2'-OMe purines of second stem: gggagaggaac(F)gac(F)gaggagu(F)ag(M)c(F)c(F)ggaaagaag(M)g(M)c(F)ggc(F)gu(F)c(F)
B16: SEQ ID NO:20-2 (ssRNA)
RNA: B15 RNA
modifications: 2'-F pyrimidines; 2'-OMe purines of first stem: gggagaggaac(F)g(M)a(M)c(F)g(M)aggagu(F)agc(F)c(F)ggaaagaaggc(F)ggc(F)g(M)u(F)c(F)
B17: SEQ ID NO:20-12 (ssRNA)
RNA: B15 RNA
modifications: 2'-F pyrimidines; 20-5 pattern plus 2'-OMe: c(F)g(M)a(M)c(F), gga(M)aa(M)g(M)aagg, 3' g(M)u(F)c(F)
B18: SEQ ID NO:20-13 (ssRNA)
RNA: B15 RNA
modifications: 2'-F pyrimidines; 20-5 pattern plus 2'-OMe: c(F)g(M)a(M)c(F), gga(M)aa(M)gaag(M)g, 3' g(M)u(F)c(F)
B19: SEQ ID NO:20-5 (ssRNA)
RNA: B15 RNA
modifications: 2'-F pyrimidines; 20-1 pattern (2'-OMe 5' single strand) plus 2'-OMe A in bulge: ga(M)gga(M)gu(F)a(M)g
B20: SEQ ID NO:20-10 (ssRNA)
RNA: B15 RNA
modifications: 2'-F pyrimidines; 20-5 pattern plus 2'-OMe near 3' end: ggc(F)g(M)g(M)c(F)gu(F)c(F)
B21: SEQ ID NO:20-9 (ssRNA)
RNA: B15 RNA
modifications: 2'-F pyrimidines; 20-5 pattern plus 2'-OMe first stem: c(F)g(M)a(M)c(F)g and 3' g(M)u(F)c(F)
B22: SEQ ID NO:20-11 (ssRNA)
RNA: B15 RNA
modifications: 2'-F pyrimidines; 20-5 pattern plus 2'-OMe: c(F)g(M)a(M)c(F), gga(M)aa(M)gaagg, c(F)g(M)g(M)c(F)g(M)u(F)c(F)

target: T1, midkine (full-length) (Homo sapiens, UniProt P21741 P21741:23-143); experiment: cell_activity; 100 nM RNA; conditions: tags: expressed in yeast
T1 sequence: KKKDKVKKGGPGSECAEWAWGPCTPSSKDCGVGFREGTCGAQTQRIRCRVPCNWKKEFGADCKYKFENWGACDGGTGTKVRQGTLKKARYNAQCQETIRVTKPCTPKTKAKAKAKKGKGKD
Description: (§1) 30 μL of 1.5 μM midkine was applied to the outer surface of the membrane of Chemotaxicell (membrane pore diameter 8 μm, manufactured by Kurabo) to immobilize the midkine to the outer surface of the membrane. The midkine-immobilized Chemotaxicell was placed on a 24-well culture plate containing 500 μL of a medium (supplemented with 0.3% bovine serum albumin, Dulbecco's Modified Eagle's medium) supplemented with each RNA aptamer added thereto at 100 nM. 200 μL of UMR106 cells were placed in the inner layer of the Chemotaxicell chamber at a density of 1×10⁶ cells/mL, and cultured at 37° C. for 4 hours. The cells remaining in the inner layer of the Chemotaxicell chamber were removed, and the cells that had infiltrated and adhered to the midkine-applied surface were fixed with methanol. The Chemotaxicell chamber was immersed in a 1% aqueous solution of Crystal Violet for 30 minutes to stain the cells. After the Chemotaxicell chamber was washed with distilled water and dried, the pigment was extracted with a mixed solution of 200 μL of 1% SDS and 1% triton X100. 150 μL of the extract was transferred to a 96-well microplate, and its absorbance at 590 nm was determined.
(§2) The aptamer shown by SEQ ID NO:5 is 77 nucleotides long, having the 2′-position of the ribose of the pyrimidine nucleotide fluoro-substituted. To enable the chemical synthesis, to reduce the toxicity, and to improve the stability in the blood, miniaturization and stabilization of this aptamer were performed. The operations of miniaturization and stabilization were performed on the basis of the secondary structure estimated by the MFOLD program, and the activity was evaluated by a cell migration inhibition experiment. The RNA concentration in the cell migration inhibition experiment was 100 nM or 500 nM. Since some errors occur in experimental results depending on cell condition, a previously assayed sample was included as a positive control in each measurement.

Binder | activity
B1 | 42 % of SEQ 5 inhibition
B2 | 94 % of SEQ 5 inhibition
B3 | 97 % of SEQ 5 inhibition
B4 | 110 % of SEQ 5 inhibition
B5 | 91 % of SEQ 5 inhibition
B6 | 60 % of SEQ 5 inhibition
GGGAGAGGAGAAGAGGAAGGCACAGGGGUUGGUGUCGGGUGCCAG (ssRNA, 2'-F pyrimidines) [SEQ ID NO:39] | 52 % of SEQ 5 inhibition
B7 | 100 % of SEQ 5 inhibition
B8 | 90 % of SEQ 5 inhibition
B9 | 44 % of SEQ 5 inhibition
B10 | 40 % of SEQ 5 inhibition

target: T1, midkine (full-length); experiment: cell_activity; UMR106 migration inhibition, 500 nM RNA; conditions: tags: expressed in yeast
Description: as §1, §2

Binder | activity
B11 | 80 % of SEQ ID NO:40
GGGAAGGAGGAAGUGCACAGGGGUUGGUGUCGGGUGCAC (ssRNA, 5' PEG2000; as 61-4 but a(M)gg(M)g(M)g(M) and ggg(M)u(F)) [SEQ ID NO:61-9] | 39 % of SEQ ID NO:40
GGGAAGGAGGAAGUGCACAGGGGUUGGUGUCGGGUGCAC (ssRNA, as 61-4 plus PEG30k at both ends) [SEQ ID NO:61-6] | 57 % of SEQ ID NO:40
B12 | 86 % of SEQ ID NO:40
GGGAAGGAGGAAGUGCACAGGGGUUGGUGUCGGGUGCAC (ssRNA, as 61-4 plus 2'-OMe: c(F)g(M)g(M)gu(F) near 3' end) [SEQ ID NO:61-7] | 46 % of SEQ ID NO:40
GGGAAGGAGGAAGUGCACAGGGGUUGGUGUCGGGUGCAC (ssRNA, as 61-4 plus 5' branched PEG40k and 3' idT) [SEQ ID NO:61-5] | 40 % of SEQ ID NO:40
GGGAAGGAGGAAGUGCACAGGGGUUGGUGUCGGGUGCAC (ssRNA, as 61-4 but a(M)g(M)gg(M)g(M) in place of aggg(M)g(M)) [SEQ ID NO:61-8] | 54 % of SEQ ID NO:40

target: T1, midkine (full-length); experiment: as above; conditions: tags: expressed in yeast; remark: another data set of the same source

Binder | activity
B13 | 100 % of SEQ ID NO:40
B14 | 100 % of SEQ ID NO:40

target: T1, midkine (full-length); experiment: cell_activity; 500 nM RNA; conditions: tags: expressed in yeast
Description: as §1, with “Chem. 276 (19), 15868-15875, 2001). […] 30 μL” for “30 μL”
as §2, with “SEQ ID NO:4 is 77” for “SEQ ID NO:5 is 77”, “having the 2′ position of the” for “having the 2′-position of the”, “pyrimidine nucleotide thereof fluoro-substituted. To” for “pyrimidine nucleotide fluoro-substituted. To”, “inhibition experiment. In the cell” for “inhibition experiment. The RNA concentration in the cell”, “migration inhibition experiment, the RNA concentration was 100” for “migration inhibition experiment was 100”

Binder | activity
GGGACGAGGAGUAGCCGGAAAGAAGGCGGCGUC (ssRNA, 2'-F pyrimidines) [SEQ ID NO:22] | 70 % of SEQ 4 inhibition
GGCGAGGAGUAGCCGGAAAGAAGGCGGCGCC (ssRNA, 2'-F pyrimidines) [SEQ ID NO:28] | 71 % of SEQ 4 inhibition
GACGAGGAGUAGCCGGAAAGAAGGCGGCGUC (ssRNA, 2'-F pyrimidines) [SEQ ID NO:29] | 74 % of SEQ 4 inhibition
GGGAGAGGAACGACGAGAACAGCCGGAAAGAAGGCGGCGUC (ssRNA, 2'-F pyrimidines) [SEQ ID NO:25] | 81 % of SEQ 4 inhibition
GGGAGAGGAACGACGAGAGUAGCCGGAAAGAAGGCGGCGUC (ssRNA, 2'-F pyrimidines) [SEQ ID NO:26] | 18 % of SEQ 4 inhibition
GGGAGAGGAACGACGAGGGUAGCCGGAAAGAAGGCGGCGUC (ssRNA, 2'-F pyrimidines) [SEQ ID NO:27] | 78 % of SEQ 4 inhibition
GGGAGAGGAACGACGAGGAGUAGCCGAAAGGCGGCGUC (ssRNA, 2'-F pyrimidines) [SEQ ID NO:23] | 66 % of SEQ 4 inhibition
GGGAGAGGAACGACGAGGAGUAGCCUUCGGGCGGCGUC (ssRNA, 2'-F pyrimidines) [SEQ ID NO:24] | 65 % of SEQ 4 inhibition

target: T1, midkine (full-length); experiment: cell_activity; UMR106 migration inhibition, 500 nM RNA; conditions: tags: expressed in yeast; remark: another data set of the same source
Description: as §1, with “Chem. 276 (19), 15868-15875, 2001). […] 30 μL” for “30 μL”
as §2, with “SEQ ID NO:4 is 77” for “SEQ ID NO:5 is 77”, “having the 2′ position of the” for “having the 2′-position of the”, “pyrimidine nucleotide thereof fluoro-substituted. To” for “pyrimidine nucleotide fluoro-substituted. To”, “inhibition experiment. In the cell” for “inhibition experiment. The RNA concentration in the cell”, “migration inhibition experiment, the RNA concentration was 100” for “migration inhibition experiment was 100”

Binder | activity
GGGAGAGGAACGACGAGGAGUAGCCGGAAAGAAGGCGGCGUC (ssRNA, 2'-F pyrimidines; 2'-OMe on all purines of the 5' single-stranded part g1-a10) [SEQ ID NO:20-1] | 109 % of SEQ ID NO:4
B15 | 60 % of SEQ ID NO:4
B16 | 84 % of SEQ ID NO:4
B17 | 53 % of SEQ ID NO:4
B18 | 89 % of SEQ ID NO:4
B19 | 88 % of SEQ ID NO:4
GGGAGAGGAACGACGAGGAGUAGCCGGAAAGAAGGCGGCGUC (ssRNA, 2'-F pyrimidines; 20-5 pattern plus 2'-OMe A in loop: gga(M)aa(M)gaagg) [SEQ ID NO:20-8] | 99 % of SEQ ID NO:4
B20 | 86 % of SEQ ID NO:4
B21 | 130 % of SEQ ID NO:4
B22 | 76 % of SEQ ID NO:4
GGGAGAGGAACGACGAGGAGUAGCCGGAAAGAAGGCGGCGUC (ssRNA, 2'-F pyrimidines; 20-1 pattern plus 2'-OMe G in bulge: gag(M)g(M)ag(M)u(F)ag) [SEQ ID NO:20-6] | 69 % of SEQ ID NO:4
GGGAGAGGAACGACGAGGAGUAGCCGGAAAGAAGGCGGCGUC (ssRNA, 2'-F pyrimidines; 20-1 pattern plus 2'-OMe A in loop: gga(M)aa(M)gaagg) [SEQ ID NO:20-7] | 88 % of SEQ ID NO:4
GGGAGAGGAACGACGAGGAGUAGCCGGAAAGAAGGCGGCGUC (ssRNA, 2'-F pyrimidines; 2'-OMe G in loop: c(F)c(F)g(M)g(M)aaag(M)aagg) [SEQ ID NO:20-4] | 60 % of SEQ ID NO:4
